The source of these data is article PMC6658569 (2019).

As usually defined, the Kd is the equilibrium constant for the complex coming apart. A higher Kd goes with weaker binding.

The experiment has as its target human complement C3 (human). The experiment in a line: MST.

Sequence of human complement C3 (human) (chain, as listed by the source, chain 1 of 2): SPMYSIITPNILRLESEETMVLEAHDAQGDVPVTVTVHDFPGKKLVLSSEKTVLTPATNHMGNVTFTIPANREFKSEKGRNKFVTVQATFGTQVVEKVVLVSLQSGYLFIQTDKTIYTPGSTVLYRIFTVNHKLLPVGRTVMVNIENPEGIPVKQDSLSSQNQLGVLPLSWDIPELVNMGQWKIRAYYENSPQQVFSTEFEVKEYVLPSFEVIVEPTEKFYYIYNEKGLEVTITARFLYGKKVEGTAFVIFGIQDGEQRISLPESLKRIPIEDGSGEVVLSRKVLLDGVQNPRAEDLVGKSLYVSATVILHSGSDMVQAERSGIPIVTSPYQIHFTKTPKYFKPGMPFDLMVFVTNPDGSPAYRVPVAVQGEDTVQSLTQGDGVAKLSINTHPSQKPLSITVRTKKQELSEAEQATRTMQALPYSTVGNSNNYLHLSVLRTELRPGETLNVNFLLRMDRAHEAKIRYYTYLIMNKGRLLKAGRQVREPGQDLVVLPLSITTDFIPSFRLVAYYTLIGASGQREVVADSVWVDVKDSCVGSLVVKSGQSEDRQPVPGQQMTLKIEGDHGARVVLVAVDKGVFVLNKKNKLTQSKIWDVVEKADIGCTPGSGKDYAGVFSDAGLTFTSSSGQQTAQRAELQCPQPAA
Sequence of human complement C3 (human) (chain, as listed by the source, chain 2 of 2): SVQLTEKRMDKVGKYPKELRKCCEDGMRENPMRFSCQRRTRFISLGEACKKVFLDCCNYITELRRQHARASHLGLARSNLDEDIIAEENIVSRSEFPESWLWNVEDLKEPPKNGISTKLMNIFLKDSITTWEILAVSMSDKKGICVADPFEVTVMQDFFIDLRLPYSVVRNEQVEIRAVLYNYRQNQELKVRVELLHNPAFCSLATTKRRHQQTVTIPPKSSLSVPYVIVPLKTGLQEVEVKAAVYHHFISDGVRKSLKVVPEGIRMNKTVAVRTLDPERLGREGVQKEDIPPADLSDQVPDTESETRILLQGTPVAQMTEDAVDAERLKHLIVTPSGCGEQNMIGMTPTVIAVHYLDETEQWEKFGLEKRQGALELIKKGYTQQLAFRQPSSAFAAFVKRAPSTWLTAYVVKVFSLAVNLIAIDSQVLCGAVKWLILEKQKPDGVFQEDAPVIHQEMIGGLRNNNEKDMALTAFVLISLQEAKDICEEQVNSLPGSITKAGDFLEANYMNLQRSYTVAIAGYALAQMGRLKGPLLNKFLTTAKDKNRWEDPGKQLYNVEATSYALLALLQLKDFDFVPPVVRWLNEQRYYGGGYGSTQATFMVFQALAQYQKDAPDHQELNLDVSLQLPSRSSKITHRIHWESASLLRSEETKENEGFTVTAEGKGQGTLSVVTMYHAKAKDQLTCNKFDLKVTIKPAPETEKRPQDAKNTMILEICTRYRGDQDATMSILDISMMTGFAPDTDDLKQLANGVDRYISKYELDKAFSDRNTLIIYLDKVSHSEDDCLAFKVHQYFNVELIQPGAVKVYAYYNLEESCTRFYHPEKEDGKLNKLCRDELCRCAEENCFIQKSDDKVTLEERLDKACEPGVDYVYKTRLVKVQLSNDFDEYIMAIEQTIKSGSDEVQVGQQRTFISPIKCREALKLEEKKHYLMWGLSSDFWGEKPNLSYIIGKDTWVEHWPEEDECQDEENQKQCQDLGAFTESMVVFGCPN

B1: NfrA (natural protein)
chain: DNIGTSAEELGLSDYRHFVIYPRLDKALKAQKNNDEATAIREFEYIHQQVPDNIPLTLYLAEAYRHFGHDDRARLLLEDQLKRHPGDARLERSLAAIPVEVKSVTTVEELLAQQKACDAAPTLRCRSEVGQNALRLAQLPVARAQLNDATFAASPEGKTLRTDLLQRAIYLKQWSQADTLYNEARQQNTLSAAERRQWFDVLLAGQLDDRILALQSQGIFTDPQSYITYATALAYRGEKARLQHYLIENKPLFTTDAQEKSWLYLLSKYSANPVQALANYTVQFADNRQYVVGATLPVLLKEGQYDAAQKLLATLPANEMLEERYAVSVATRNKAEALRLARLLYQQEPANLTRLDQLTWQLMQNEQSREAADLLLQRYPFQGDARVSQTLMARLASLLESHPYLATPAKVAILSKPLPLAEQRQWQSQLPGIADNCPAIVRLLGDMSPSYDAAAWNRLAKCYRDTLPGVALYAWLQAEQRQPSAWQHRAVAYQAYQVEDYATALAAWQKISLHDMSNEDLLAAANTAQAAGNGAARDRWLQQAEKRGLGSNALYWWLHAQRYIPGQPELALNDLTRSINIAPSANAYVARATIYRQRHNVPAAVSDLRAALELEPNNSNTQAALGYALWDSGDIAQSREMLEPAHKGLPDDPALIRQLAYVNQRLDDMPATQHYARLVIDDIDNQALITPLTPEQNQQRFNFRRLHEEVGRRWTFSFDSSIGLRSGAMSTANNNVGGAAPGKSYRSYGQLEAEYRIGRNMLLEGDLLSVYSRVFADTGENGVMMPVKNPMSGTGLRWKPLRDQIFFIAVEQQLPLNGQNGASDTMLRASASFFNGGKYSDEWHPNGSGWFAQNLYLDAAQYIRQDIQAWTADYRVSWHQKVANGQTIEPYAHVQDNGYRDKGTQGAQLGGVGVRWNIWTGETHYDAWPHKVSLGVEYQHTFKAINQRNGERNNAFLTIGVHW
modifications: NHS ester fluorescent dye (in the MST assay only)
Consider B1, for which binding was characterised by a dissociation constant (Kd) of 1.3 µM.

B2: HtrE (natural protein)
chain: AELVEYDHTFLMGQNASNIDLSRYSEGNPAIPGVYDVSVYVNDQPIINQSITFVAIEGKKNAQACITLKNLLQFHINSPDINNEKAVLLARDETLGNCLNLTEIIPQASVRYDVNDQRLDIDVPQAWVMKNYQNYVDPSLWENGINAAMLSYNLNGYHSETPGRKNESIYAAFNGGMNLGAWRLRASGNYNWMTDSGSNYDFKNRYVQRDIASLRSQLILGESYTTGETFDSVSIRGIRLYSDSRMLPPTLASFAPIIHGVANTNAKVTITQGGYKIYETTVPPGAFVIDDLSPSGYGSDLIVTIEESDGSKRTFSQPFSSVVQMLRPGVGRWDISGGQVLKDDIQDEPNLFQASYYYGLNNYLTGYTGIQITDNNYTAGLLGLGLNTSVGAFSFDVTHSNVRIPDDKTYQGQSYRVSWNKLFEETSTSLNIAAYRYSTQNYLGLNDALTLIDEVKHPEQDLEPKSMRNYSRMKNQVTVSINQPLKFEKKDYGSFYLSGSWSDYWASGQNRSNYSIGYSNSTSWGSYSVSAQRSWNEDGDTDDSVYLSFTIPIEKLLGTEQRTSGFQSIDTQISSDFKGNNQLNVSSSGYSDNARVSYSVNTGYTMNKASKDLSYVGGYASYESPWGTLAGSISANSDNSRQVSLSTDGGFVLHSGGLTFSNDSFSDSDTLAVVQAPGAQGARINYGNSTIDRWGYGVTSALSPYHENRIALDINDLENDVELKSTSAVAVPRQGSVVFADFETVQGQSAIMNITRSDGKNIPFAADIYDEQGNVIGNVGQGGQAFVRGIEQQGNISIKWLEQSKPVSCLAHYQQSPEAEKIAQSIILNGIRCQIQ
modifications: NHS ester fluorescent dye (in the MST assay only)
On to B2, for which the dissociation constant (Kd) was 5.4 µM.

B3: YhcD (natural protein)
chain: DGIEIAAVDFDRETLKSLGVDPNISHYFSRSARFLPGEYSLIVSVNGEKKGNIATRFDENGDICLDQAFLQQAGLKIPSEEKNGCYDYILSYPGTTITPLPNQEALDIIVSPQAIIPIGLDLTNAATGGTAALLNYSLMSSRAEFSNGSSDYSQAALEGGININDWMLRSHQFLTQTNGTFSNQNSSTYLQRTFTDLKTLMRAGEVNLNNSVLEGASIYGIEIAPDNALQTSGSGVQVTGIANTSQARVEIRQQGVLIHSILVPAGAFTIPDVPVRNGNSDLNVTVVETDGSSHNYIVPSTLFNQHVESFQGYRFAIGRVDDDYDESPWVISASSGWNLTRWSAMNGGVIVAENYQAASIRSSLVPLPDLTVSSQISTSQDTKDSLQGQKYRLDANYNLPFSLGLTTSLTRSDRHYRELSEAIDDDYTDPTKSTYALGLNWSNSILGGFNISGYKTYSYDGDNDSSNLNINWNKAFKHATVSVNWQHQLSASENNEDDGDLFYVNISIPFGRSNTATLYTRHDDHKTHYGTGVMGVVSDEMSYYVNAERDHDERETSLNGSISSNLHYTQVSLAAGASGSDSRTYNGTMSGGIAVHDQGVTFSPWTINDTFAIAKMDNNIAGVRITSQAGPVWTDFRGNAVIPSIQPWRTSGVEIDTASLPKNVDIGNGTKMIKQGRGAVGKVGFSAITQRRALLNITLSDGKKLPRGVAIEDSEGNYLTTSVDDGVVFLNNIKPDMVLDIKDEQQSCRIHLTFPEDAPKDVFYETATGECQ
modifications: NHS ester fluorescent dye (in the MST assay only)
With B3, binding was characterised by a dissociation constant (Kd) of 8.9 µM.
